In doi:10.1101/396861:

Target: T1, AtHYL1-FL (HYL1/DRB1 full length) (Arabidopsis thaliana, UniProt O04492 1-419)
T1 sequence: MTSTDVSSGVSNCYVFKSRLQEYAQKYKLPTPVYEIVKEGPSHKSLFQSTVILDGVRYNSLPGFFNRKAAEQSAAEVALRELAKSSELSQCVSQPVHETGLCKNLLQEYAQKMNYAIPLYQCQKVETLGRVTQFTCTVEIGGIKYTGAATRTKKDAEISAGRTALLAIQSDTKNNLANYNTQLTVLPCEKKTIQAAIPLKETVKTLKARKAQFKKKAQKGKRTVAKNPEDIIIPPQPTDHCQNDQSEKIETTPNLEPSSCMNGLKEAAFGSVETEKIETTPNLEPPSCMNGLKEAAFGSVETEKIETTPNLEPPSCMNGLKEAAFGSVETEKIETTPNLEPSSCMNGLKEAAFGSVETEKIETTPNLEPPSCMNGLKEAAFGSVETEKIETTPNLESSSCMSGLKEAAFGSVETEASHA
Assay: EMSA

B1: 50-nt DNA hairpin (dsDNA hairpin loop) (structured_DNA)
DNA: GCCCTGCAACCGAGACCACGCTTATGGAGCCTGGGACGTGGTCTCGGTTG
  binding result: binds
